Results on 27 molecules are retold here after US20180155451A1 (published 2018).

Test [1] addresses T1, FcγRIIb extracellular domain with C-terminal His tag (human, UniProt P31994 43-217).
T1 construct: extracellular domain; expressed in FreeStyle293 cells; analyte in the Biacore assay; also called FcgRIIb; 2b; not shown: His tag at the C terminus
T1 sequence (looked up): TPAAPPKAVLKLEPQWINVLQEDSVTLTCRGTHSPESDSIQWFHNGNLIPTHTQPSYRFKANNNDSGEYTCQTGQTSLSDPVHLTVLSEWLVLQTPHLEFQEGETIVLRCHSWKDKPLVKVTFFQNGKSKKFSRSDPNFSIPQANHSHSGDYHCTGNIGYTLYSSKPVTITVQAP
In words: SPR (Biacore), captured antibody, FcγRIIb analyte; binding relative to GpH7-A5/GpH7-B3/GpL16-k0 = 100.

Test [2] concerns the target T1, FcγRIIb extracellular domain with …. In words: SPR (Biacore), captured antibody, FcγRIIb analyte; binding relative to GpH7-B3/GpL16-k0 = 100. Background: SPR reads the build-up and loss of mass on a sensor chip optically.

B1: GpH7-A5/GpH7-B3 variant I332_09D/GpL16-k0 (antibody, human IgG1, kappa)
heavy 1: not shown
heavy 2: not shown
light: DIVMTQSPLSLPVTPGEPASISCQASESLVHSNRNTYLHWYLQKPGQSPQLLIYKVSNRFSGVPDRFSGSGSGTDFTLKISRVEAEDVGVYYCSQNTHVPPTFGQGTKVEIERTVAAPSVFIFPPSDEQLKSGTASVVCLLNNFYPREAKVQWKVDNALQSGNSQESVTEQDSKDSTYSLSSTLTLSKADYEKHKVYACEVTHQGLSSPVTKSFNRGEC
notes: heterodimerized; mutation in the B3 H chain only; also called He Ab I332_09D
Turning to B1, the He/Con_2b in test [1] was 147 % of control.

B2: GpH7-B3 variant L328_13S/GpL16-k0 (antibody, human IgG1, kappa)
heavy: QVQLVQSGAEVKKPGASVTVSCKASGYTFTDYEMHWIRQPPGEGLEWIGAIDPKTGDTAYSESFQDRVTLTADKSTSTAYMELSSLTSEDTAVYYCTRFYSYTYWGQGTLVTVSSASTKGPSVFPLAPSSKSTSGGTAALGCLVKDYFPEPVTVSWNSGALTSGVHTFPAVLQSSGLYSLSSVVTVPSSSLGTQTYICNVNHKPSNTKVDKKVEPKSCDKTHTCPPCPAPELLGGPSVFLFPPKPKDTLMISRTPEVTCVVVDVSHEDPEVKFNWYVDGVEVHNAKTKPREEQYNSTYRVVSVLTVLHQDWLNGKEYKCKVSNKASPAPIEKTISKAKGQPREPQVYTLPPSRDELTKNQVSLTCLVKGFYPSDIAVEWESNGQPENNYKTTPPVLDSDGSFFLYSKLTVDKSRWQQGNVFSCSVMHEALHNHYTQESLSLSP
light: B1 light
notes: homodimerized; mutation in both H chains; also called Ho Ab L328_13S
Regarding B2, in test [2], the Ho/Con_2b was 147 % of control.

B3: GpH7-B3 variant P238_04F/GpL16-k0 (antibody, human IgG1, kappa)
heavy: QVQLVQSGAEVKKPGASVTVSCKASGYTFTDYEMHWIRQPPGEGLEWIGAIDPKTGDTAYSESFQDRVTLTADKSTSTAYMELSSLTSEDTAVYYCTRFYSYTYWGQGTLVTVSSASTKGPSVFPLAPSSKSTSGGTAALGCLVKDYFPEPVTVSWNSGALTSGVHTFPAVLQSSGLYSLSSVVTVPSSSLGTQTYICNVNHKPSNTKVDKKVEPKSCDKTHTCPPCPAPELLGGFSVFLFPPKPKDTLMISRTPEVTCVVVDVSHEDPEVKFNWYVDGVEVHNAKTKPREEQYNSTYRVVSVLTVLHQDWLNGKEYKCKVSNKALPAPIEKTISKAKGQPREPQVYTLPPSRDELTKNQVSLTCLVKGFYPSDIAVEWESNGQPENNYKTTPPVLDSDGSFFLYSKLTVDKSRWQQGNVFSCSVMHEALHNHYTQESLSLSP
light: B1 light
notes: homodimerized; mutation in both H chains; also called Ho Ab P238_04F
Turning to B3, the Ho/Con_2b in test [2] was 209 % of control.

B4: GpH7-B3 variant S267_06M/GpL16-k0 (antibody, human IgG1, kappa)
heavy: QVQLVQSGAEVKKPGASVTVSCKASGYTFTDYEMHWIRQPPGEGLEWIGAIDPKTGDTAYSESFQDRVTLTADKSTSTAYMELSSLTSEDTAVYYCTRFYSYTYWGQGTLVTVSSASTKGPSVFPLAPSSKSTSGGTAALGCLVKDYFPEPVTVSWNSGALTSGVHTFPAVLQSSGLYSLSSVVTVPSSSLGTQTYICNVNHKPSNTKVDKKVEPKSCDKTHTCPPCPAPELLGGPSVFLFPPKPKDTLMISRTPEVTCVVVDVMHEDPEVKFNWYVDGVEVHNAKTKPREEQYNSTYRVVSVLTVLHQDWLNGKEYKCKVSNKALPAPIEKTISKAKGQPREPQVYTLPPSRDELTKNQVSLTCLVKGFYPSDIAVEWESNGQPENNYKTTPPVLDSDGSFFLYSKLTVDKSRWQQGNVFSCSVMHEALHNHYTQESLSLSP
light: B1 light
notes: homodimerized; mutation in both H chains; also called Ho Ab S267_06M
In the case of B4, the Ho/Con_2b in test [2] is 187 % of control.

B5: GpH7-A5/GpH7-B3 variant I332_04F/GpL16-k0 (antibody, human IgG1, kappa)
heavy 1: not shown
heavy 2: not shown
light: B1 light
notes: heterodimerized; mutation in the B3 H chain only; also called He Ab I332_04F
Turning to B5, the He/Con_2b in test [1] is 104 % of control.

B6: GpH7-B3 variant T335_15Y/GpL16-k0 (antibody, human IgG1, kappa)
heavy: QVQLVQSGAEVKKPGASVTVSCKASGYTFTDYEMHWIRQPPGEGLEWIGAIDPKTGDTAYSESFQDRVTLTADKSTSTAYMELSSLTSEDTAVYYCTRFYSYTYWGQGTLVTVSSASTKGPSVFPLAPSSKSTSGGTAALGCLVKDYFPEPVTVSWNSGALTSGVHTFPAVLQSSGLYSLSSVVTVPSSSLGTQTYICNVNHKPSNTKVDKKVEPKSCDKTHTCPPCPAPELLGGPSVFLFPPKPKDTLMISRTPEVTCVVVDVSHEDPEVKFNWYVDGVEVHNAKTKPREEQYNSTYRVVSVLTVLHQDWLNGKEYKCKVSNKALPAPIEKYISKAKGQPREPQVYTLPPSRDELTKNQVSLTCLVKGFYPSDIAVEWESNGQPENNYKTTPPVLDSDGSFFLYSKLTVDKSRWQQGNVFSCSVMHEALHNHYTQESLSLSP
light: B1 light
notes: homodimerized; mutation in both H chains; also called Ho Ab T335_15Y
Consider B6, for which the Ho/Con_2b in test [2] was 104 % of control.

B7: GpH7-B3 variant S267_19Q/GpL16-k0 (antibody, human IgG1, kappa)
heavy: not shown
light: B1 light
notes: homodimerized; mutation in both H chains; also called Ho Ab S267_19Q
B7: the Ho/Con_2b in test [2] was 185 % of control.

B8: GpH7-A5/GpH7-B3 variant G237_04F/GpL16-k0 (antibody, human IgG1, kappa)
heavy 1: not shown
heavy 2: not shown
light: B1 light
notes: heterodimerized; mutation in the B3 H chain only; also called He Ab G237_04F
With B8, the He/Con_2b in test [1] was 149 % of control.

B9: GpH7-B3 variant L235_20W/GpL16-k0 (antibody, human IgG1, kappa)
heavy: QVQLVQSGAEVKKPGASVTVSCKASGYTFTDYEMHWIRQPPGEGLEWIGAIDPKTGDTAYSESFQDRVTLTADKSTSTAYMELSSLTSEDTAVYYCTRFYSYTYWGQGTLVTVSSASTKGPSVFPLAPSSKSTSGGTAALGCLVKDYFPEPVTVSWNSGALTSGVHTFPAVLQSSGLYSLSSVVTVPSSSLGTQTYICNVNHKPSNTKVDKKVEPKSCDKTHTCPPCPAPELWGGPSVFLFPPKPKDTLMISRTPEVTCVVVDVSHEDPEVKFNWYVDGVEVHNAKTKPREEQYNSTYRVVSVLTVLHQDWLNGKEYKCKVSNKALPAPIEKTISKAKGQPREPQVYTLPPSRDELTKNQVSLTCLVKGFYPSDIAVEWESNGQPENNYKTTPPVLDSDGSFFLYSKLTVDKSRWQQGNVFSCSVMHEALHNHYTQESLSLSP
light: B1 light
notes: homodimerized; mutation in both H chains; also called Ho Ab L235_20W
For B9, the Ho/Con_2b in test [2] is 116 % of control.

B10: GpH7-B3 variant P331_20W/GpL16-k0 (antibody, human IgG1, kappa)
heavy: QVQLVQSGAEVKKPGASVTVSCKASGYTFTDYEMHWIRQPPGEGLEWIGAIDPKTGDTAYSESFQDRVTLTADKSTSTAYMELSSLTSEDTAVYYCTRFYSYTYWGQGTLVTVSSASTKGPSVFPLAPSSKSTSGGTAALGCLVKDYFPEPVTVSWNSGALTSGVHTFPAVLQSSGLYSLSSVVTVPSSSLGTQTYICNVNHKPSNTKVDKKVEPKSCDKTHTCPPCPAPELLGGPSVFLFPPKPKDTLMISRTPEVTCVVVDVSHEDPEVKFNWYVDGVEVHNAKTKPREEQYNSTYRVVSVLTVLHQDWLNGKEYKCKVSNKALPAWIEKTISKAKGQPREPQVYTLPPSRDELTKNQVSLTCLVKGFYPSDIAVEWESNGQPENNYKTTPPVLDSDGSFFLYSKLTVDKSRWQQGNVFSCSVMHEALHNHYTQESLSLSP
light: B1 light
notes: homodimerized; mutation in both H chains; also called Ho Ab P331_20W
Take B10: the Ho/Con_2b in test [2] is 111 % of control.

B11: GpH7-B3 variant P238_15Y/GpL16-k0 (antibody, human IgG1, kappa)
heavy: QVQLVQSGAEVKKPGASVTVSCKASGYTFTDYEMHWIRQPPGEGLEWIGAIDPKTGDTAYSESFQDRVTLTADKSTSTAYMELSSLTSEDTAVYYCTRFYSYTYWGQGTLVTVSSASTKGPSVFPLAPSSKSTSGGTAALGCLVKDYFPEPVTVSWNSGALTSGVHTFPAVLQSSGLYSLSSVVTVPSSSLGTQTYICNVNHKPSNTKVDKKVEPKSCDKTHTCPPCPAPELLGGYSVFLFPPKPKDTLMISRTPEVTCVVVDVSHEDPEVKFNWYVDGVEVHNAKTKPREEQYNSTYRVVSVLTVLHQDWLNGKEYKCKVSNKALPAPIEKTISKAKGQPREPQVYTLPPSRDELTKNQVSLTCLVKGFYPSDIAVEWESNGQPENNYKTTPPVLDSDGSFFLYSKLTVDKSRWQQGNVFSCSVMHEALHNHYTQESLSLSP
light: B1 light
notes: homodimerized; mutation in both H chains; also called Ho Ab P238_15Y
B11: the Ho/Con_2b in test [2] was 114 % of control.

B12: GpH7-A5/GpH7-B3 variant I332_06M/GpL16-k0 (antibody, human IgG1, kappa)
heavy 1: not shown
heavy 2: not shown
light: B1 light
notes: heterodimerized; mutation in the B3 H chain only; also called He Ab I332_06M
On to B12, for which, in test [1], the He/Con_2b is 105 % of control.

B13: GpH7-A5/GpH7-B3 variant I332_14T/GpL16-k0 (antibody, human IgG1, kappa)
heavy 1: not shown
heavy 2: not shown
light: B1 light
notes: heterodimerized; mutation in the B3 H chain only; label printed T332_14T, read as I332_14T; also called He Ab I332_14T
In the case of B13, in test [1], the He/Con_2b is 106 % of control.

B14: GpH7-A5/GpH7-B3 variant A327_10E/GpL16-k0 (antibody, human IgG1, kappa)
heavy 1: not shown
heavy 2: not shown
light: B1 light
notes: heterodimerized; mutation in the B3 H chain only; also called He Ab A327_10E
On to B14, for which the He/Con_2b in test [1] is 140 % of control.

B15: GpH7-A5/GpH7-B3 variant G237_20W/GpL16-k0 (antibody, human IgG1, kappa)
heavy 1: not shown
heavy 2: not shown
light: B1 light
notes: heterodimerized; mutation in the B3 H chain only; also called He Ab G237_20W
As for B15, the He/Con_2b in test [1] was 193 % of control.

B16: GpH7-A5/GpH7-B3 variant I332_15Y/GpL16-k0 (antibody, human IgG1, kappa)
heavy 1: not shown
heavy 2: not shown
light: B1 light
notes: heterodimerized; mutation in the B3 H chain only; also called He Ab I332_15Y
As to B16, the He/Con_2b in test [1] was 101 % of control.

B17: GpH7-B3 variant S337_16H/GpL16-k0 (antibody, human IgG1, kappa)
heavy: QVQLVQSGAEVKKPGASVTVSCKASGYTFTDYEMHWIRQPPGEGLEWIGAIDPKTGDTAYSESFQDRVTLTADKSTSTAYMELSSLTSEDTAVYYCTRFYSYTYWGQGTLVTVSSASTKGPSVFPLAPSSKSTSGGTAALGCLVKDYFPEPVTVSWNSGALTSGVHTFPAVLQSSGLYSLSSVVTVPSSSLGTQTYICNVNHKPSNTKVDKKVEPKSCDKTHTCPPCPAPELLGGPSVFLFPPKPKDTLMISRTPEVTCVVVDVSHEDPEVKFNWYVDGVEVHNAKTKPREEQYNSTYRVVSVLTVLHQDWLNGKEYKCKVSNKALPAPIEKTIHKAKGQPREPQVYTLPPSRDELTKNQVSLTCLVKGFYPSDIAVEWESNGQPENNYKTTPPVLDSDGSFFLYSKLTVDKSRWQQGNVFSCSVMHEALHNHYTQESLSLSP
light: B1 light
notes: homodimerized; mutation in both H chains; also called Ho Ab S337_16H
For the molecule B17, the Ho/Con_2b in test [2] was 103 % of control.

B18: GpH7-A5/GpH7-B3 variant G236_10E/GpL16-k0 (antibody, human IgG1, kappa)
heavy 1: not shown
heavy 2: not shown
light: B1 light
notes: heterodimerized; mutation in the B3 H chain only; also called He Ab G236_10E
Consider B18, for which the He/Con_2b in test [1] is 110 % of control.

B19: GpH7-B3 variant K334_05P/GpL16-k0 (antibody, human IgG1, kappa)
heavy: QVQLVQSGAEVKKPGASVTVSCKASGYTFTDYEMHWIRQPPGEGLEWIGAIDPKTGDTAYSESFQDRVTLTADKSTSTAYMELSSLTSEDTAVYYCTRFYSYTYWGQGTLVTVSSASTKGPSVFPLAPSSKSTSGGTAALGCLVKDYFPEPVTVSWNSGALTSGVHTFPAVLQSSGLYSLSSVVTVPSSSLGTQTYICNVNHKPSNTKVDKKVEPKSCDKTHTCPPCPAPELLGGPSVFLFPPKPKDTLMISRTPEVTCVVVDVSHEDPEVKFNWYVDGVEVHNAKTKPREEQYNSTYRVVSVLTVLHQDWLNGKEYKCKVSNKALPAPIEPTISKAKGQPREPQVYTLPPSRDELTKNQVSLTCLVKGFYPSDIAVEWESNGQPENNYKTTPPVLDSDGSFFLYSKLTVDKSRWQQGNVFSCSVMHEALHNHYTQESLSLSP
light: B1 light
notes: homodimerized; mutation in both H chains; also called Ho Ab K334_05P
B19: the Ho/Con_2b in test [2] was 112 % of control.

B20: GpH7-B3 variant K334_13S/GpL16-k0 (antibody, human IgG1, kappa)
heavy: not shown
light: B1 light
notes: homodimerized; mutation in both H chains; also called Ho Ab K334_13S
On to B20, for which the Ho/Con_2b in test [2] was 117 % of control.

B21: GpH7-B3 variant K326_15Y/GpL16-k0 (antibody, human IgG1, kappa)
heavy: not shown
light: B1 light
notes: homodimerized; mutation in both H chains; also called Ho Ab K326_15Y
On to B21, for which the Ho/Con_2b in test [2] is 162 % of control.

B22: GpH7-B3 variant K326_19Q/GpL16-k0 (antibody, human IgG1, kappa)
heavy: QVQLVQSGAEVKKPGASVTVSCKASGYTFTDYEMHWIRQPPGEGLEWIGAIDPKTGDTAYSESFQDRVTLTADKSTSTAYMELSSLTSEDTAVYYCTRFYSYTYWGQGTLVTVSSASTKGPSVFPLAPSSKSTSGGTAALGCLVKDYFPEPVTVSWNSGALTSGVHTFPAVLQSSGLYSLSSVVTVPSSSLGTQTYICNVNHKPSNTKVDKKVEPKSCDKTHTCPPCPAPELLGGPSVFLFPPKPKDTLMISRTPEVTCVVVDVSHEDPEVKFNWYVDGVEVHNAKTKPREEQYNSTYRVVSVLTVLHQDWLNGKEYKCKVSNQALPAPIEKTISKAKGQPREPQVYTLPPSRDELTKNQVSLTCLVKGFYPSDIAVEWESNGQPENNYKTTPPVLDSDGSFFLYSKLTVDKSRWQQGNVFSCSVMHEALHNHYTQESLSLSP
light: B1 light
notes: homodimerized; mutation in both H chains; label printed K326_190, read as K326_19Q; also called Ho Ab K326_19Q
As to B22, the Ho/Con_2b in test [2] is 163 % of control.

B23: GpH7-A5/GpH7-B3 variant H268_09D/GpL16-k0 (antibody, human IgG1, kappa)
heavy 1: not shown
heavy 2: not shown
light: B1 light
notes: heterodimerized; mutation in the B3 H chain only; also called He Ab H268_09D
As for B23, in test [1], the He/Con_2b is 239 % of control.

B24: GpH7-B3 variant V266_06M/GpL16-k0 (antibody, human IgG1, kappa)
heavy: not shown
light: B1 light
notes: homodimerized; mutation in both H chains; also called Ho Ab V266_06M
For B24, the Ho/Con_2b in test [2] was 231 % of control.

B25: GpH7-B3 variant T335_07I/GpL16-k0 (antibody, human IgG1, kappa)
heavy: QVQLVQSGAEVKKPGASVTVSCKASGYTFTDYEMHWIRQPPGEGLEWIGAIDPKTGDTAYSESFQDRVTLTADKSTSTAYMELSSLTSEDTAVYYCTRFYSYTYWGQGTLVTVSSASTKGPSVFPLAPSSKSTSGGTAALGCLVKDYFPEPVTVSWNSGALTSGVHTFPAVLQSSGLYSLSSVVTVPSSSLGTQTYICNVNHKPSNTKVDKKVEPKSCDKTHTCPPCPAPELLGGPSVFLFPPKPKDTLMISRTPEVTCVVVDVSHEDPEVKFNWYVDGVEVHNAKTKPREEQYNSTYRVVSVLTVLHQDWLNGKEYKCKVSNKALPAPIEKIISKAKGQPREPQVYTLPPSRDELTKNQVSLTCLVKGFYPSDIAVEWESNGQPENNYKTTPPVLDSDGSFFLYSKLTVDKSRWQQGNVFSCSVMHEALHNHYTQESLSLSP
light: B1 light
notes: homodimerized; mutation in both H chains; also called Ho Ab T335_07I
Consider B25, for which the Ho/Con_2b in test [2] is 104 % of control.

B26: GpH7-B3 variant K326_16H/GpL16-k0 (antibody, human IgG1, kappa)
heavy: not shown
light: B1 light
notes: homodimerized; mutation in both H chains; also called Ho Ab K326_16H
As for B26, in test [2], the Ho/Con_2b is 131 % of control.

B27: GpH7-A5/GpH7-B3 variant H268_13S/GpL16-k0 (antibody, human IgG1, kappa)
heavy 1: not shown
heavy 2: not shown
light: B1 light
notes: heterodimerized; mutation in the B3 H chain only; also called He Ab H268_13S
Take B27: the He/Con_2b in test [1] was 160 % of control.
